In publication PMC6078968, “Structural insights into the gating of DNA passage by the topoisomerase II DNA-gate” (Nature Communications, 2018):

Experiments:
[1] = target: the molecule itself; assay: crystal structure; open DNA-gate form of the hTop2β^core-DNA cleavage complex, space group P3_(2)21, one subunit in the asymmetric unit, homodimer built by the crystallographic twofold axis; 2.75 Å (5ZEN) and 3.87 Å with iodine-labelled DNA (5ZQF); MnCl2 in the sample buffer, reservoir pH 5.8, 4 °C
[2] = target: T1, hTop2βcore (DNA-binding and cleavage core of human topoisomerase 2β) (human, UniProt Q02880-2 445-1201); assay: X-ray crystallography (2.75 Å); open DNA-gate cleavage complex; Mn2+ (2 mM MnCl2), Mg acetate; etoposide or doxorubicin in crystallization mix, refined as binary complex; Crystallization: 5 mg/mL (~28 uM) protein, ~34 uM duplex, 2 mM etoposide or doxorubicin, 30 mM Tris-HCl pH 7.0, 70 mM NaCl, 2 mM MnCl2 (MgCl2 for P21), 1 mM EDTA, 2 mM β-mercaptoethanol; reservoir 100 mM Mg acetate, 50 mM MES pH 5.8 (5.6 for P21), …; conditions: protein: recombinant; chain copies: 2; blunt; self-complementary, 2 copies of S1; cleaved with 4-nt stagger in the complex
[3] = target: T1, hTop2βcore (DNA-binding and cleavage …); assay: X-ray crystallography (3.87 Å); open DNA-gate cleavage complex; Mn2+ (2 mM MnCl2), Mg acetate; etoposide or doxorubicin in crystallization mix, refined as binary complex; Crystallization: 5 mg/mL (~28 uM) protein, ~34 uM duplex, 2 mM etoposide or doxorubicin, 30 mM Tris-HCl pH 7.0, 70 mM NaCl, 2 mM MnCl2 (MgCl2 for P21), 1 mM EDTA, 2 mM β-mercaptoethanol; reservoir 100 mM Mg acetate, 50 mM MES pH 5.8 (5.6 for P21), …; conditions: protein: recombinant; chain copies: 2; blunt; self-complementary, 2 copies; cleaved with 4-nt stagger in the complex

B1: DNA-binding and cleavage core of human topoisomerase 2β (hTop2β^core), in the covalent cleavage complex with a 20-bp duplex DNA (domain or fragment, UniProt Q02880-2 445-1201, looked up)
chain: SVKYSKIKGIPKLDDANDAGGKHSLECTLILTEGDSAKSLAVSGLGVIGRDRYGVFPLRGKILNVREASHKQIMENAEINNIIKIVGLQYKKSYDDAESLKTLRYGKIMIMTDQDQDGSHIKGLLINFIHHNWPSLLKHGFLEEFITPIVKASKNKQELSFYSIPEFDEWKKHIENQKAWKIKYYKGLGTSTAKEAKEYFADMERHRILFRYAGPEDDAAITLAFSKKKIDDRKEWLTNFMEDRRQRRLHGLPEQFLYGTATKHLTYNDFINKELILFSNSDNERSIPSLVDGFKPGQRKVLFTCFKRNDKREVKVAQLAGSVAEMSAYHHGEQALMMTIVNLAQNFVGSNNINLLQPIGQFGTRLHGGKDAASPRYIFTMLSTLARLLFPAVDDNLLKFLYDDNQRVEPEWYIPIIPMVLINGAEGIGTGWACKLPNYDAREIVNNVRRMLDGLDPHPMLPNYKNFKGTIQELGQNQYAVSGEIFVVDRNTVEITELPVRTWTQVYKEQVLEPMLNGTDKTPALISDYKEYHTDTTVKFVVKMTEEKLAQAEAAGLHKVFKLQTTLTCNSMVLFDHMGCLKKYETVQDILKEFFDLRLSYYGLRKEWLVGMLGAESTKLNNQARFILEKIQGKITIENRSKKDLIQMLVQRGYESDPVKAWKEAQEKAAEEDETQNQHDDSSSDSGTPSGPDFNYILNMSLWSLTKEKVEELIKQRDAKGREVNDLKRKSPSDLWKEDLAAFVEELDKVESQERED
modifications: catalytic tyrosine (Tyr821) joined to the 5′-phosphate of the cleaved G-segment DNA by a phosphotyrosyl linkage
notes: Not seen in 5ZEN chain A: 445-451, 597-602, 616-624, 703-706, 1112-1134; the His tag is surmised from the Ni-NTA step; also called hTop2^core; Top2 cleavage complex; source: E. coli BL21 (DE3) Star-pLysS, purified (Ni-NTA, heparin, Superdex 200)
Question: Does B1 bind [1]?
Answer: binds

B2: 20-bp G-segment duplex (native) (dsDNA)
DNA 1: AGCCGAGCTGCAGCTCGGCT
DNA 2: AGCCGAGCTGCAGCTCGGCT
Question: Does B2 bind [2]?
Answer: binds

B3: 20-bp G-segment duplex, 5-iododeoxyuridine labeled (DNAI) (dsDNA)
DNA 1: AGCCGAGCUGCAGCUCGGCU
DNA 2: AGCCGAGCUGCAGCUCGGCU
modifications: 5-iodo-2'-deoxyuridine replaces all thymidines (positions 9, 15, 20 of each strand); U denotes iododeoxyuridine, DNA backbone
Question: Does B3 bind [3]?
Answer: binds
